Measurements taken from the supplement of paper PMC12042874.
± gives the uncertainty stated by the source.

Experiment: amyloid nucleation score (Sup35N fusion, yeast selection) (log enrichment); library NNK1; higher = more nucleation; inactive = no reads after selection
Procedure, shortened: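 Sup35N was fused to peptides of 20 random codons and expressed in psi-negative yeast, which were induced with 100 μM copper sulfate for 24 hours and then grown on medium lacking adenine and uracil for 7 days at 30°C. Plasmid inserts from input and output were sequenced on Illumina. The nucleation score is the DiMSum log enrichment of output over input reads, centred on the mode score of non-aggregating sequences. Sequences with under 100 input reads were left out, and random libraries had three technical output replicates.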

| Substance | amyloid nucleation score |
| --- | --- |
| FRIYLYLTCGLCSIIHYFVP | 0.818 ± 0.25 |
| FRLRVSGVSCMR | -0.912 ± 2.4 |
| FRLTGTLALKFVVELTVRR | 2.79 ± 0.26 |
| FRLVYNNFAIT | -1.78 ± 2.4 |
| FRNDGYLNSYMSRRVIIPSD | -0.194 ± 0.23 |
| FRNIDTLLTVHCVSACR | -2.4 ± 2.7 |
| FRNSLSYIVLSCLAMFFNDG | 0.967 ± 0.32 |
| FRNTERGEFNVVYGSPGFSR | 0.751 ± 0.51 |
| FRPSRHNAQPMFHSKPSRAF | -0.636 ± 1.1 |
| FRRFIFFVGYGHFIFWASWL | -0.156 ± 0.68 |
| FRRYLWFRDRPGFCCFRLMQ | -0.46 ± 1.5 |
| FRSGFSLKARSVQMCDRF | 1.26 ± 0.42 |
| FRSSFGMTHYWEWRASSGRN | 0.882 ± 0.2 |
| FRVGYFAHSCRYVRSGRHMV | 0.401 ± 0.26 |
| FRVLNCVSYVFFQRHFRRCG | -0.974 ± 0.88 |
| FRVLWDYCVSSTVRRVTSLG | inactive |
| FRVSSFWYWYVHLQGYYGTV | 1.01 ± 0.8 |
| FRYIYMMDMSSYQYVKRGSS | inactive |
| FRYLVKYRVLH | 0.14 ± 0.44 |
| FRYVDALHDRSSYIQIGKRI | -0.423 ± 1.5 |
| FSDQTFSDLGMIEFRGFLWS | 0.343 ± 0.39 |
| FSDSKLILRRRNPW | -1.56 ± 1.4 |
| FSFISKIIESCYGDFLVGDA | -1.21 ± 0.61 |
| FSGHNC | 0.299 ± 0.35 |
| FSKCSFT | -0.169 ± 0.69 |

| Substance | amyloid nucleation score |
| --- | --- |
| FSLDMSTCVLENFVLDTFQH | -2.21 ± 2.7 |
| FSLLYV | 0.321 ± 0.67 |
| FSMGQQMFVLVLSCFLVLWC | 0.832 ± 0.65 |
| FSMGSVWTEERQLCWVPMVW | 1.11 ± 0.94 |
| FSMLIDEELDFSAETSLRHG | 0.637 ± 0.59 |
| FSNARWASRSLKSARMACVA | 0.554 ± 0.81 |
| FSNDRCGFVAR | 0.149 ± 0.26 |
| FSNIWMSTMVPSRVRKARCV | 0.05 ± 0.75 |
| FSNNLHLWAITSVLNIQTSN | 6.245 ± 0.053 |
| FSPLCKPLNSWYNQVKYRRH | 0.131 ± 0.84 |
| FSQRMGICYNVREFCNEFRC | 1.47 ± 0.14 |
| FSRCPHQALSTECFPFFGS | -0.122 ± 1.4 |
| FSRSTQVSER | 1.38 ± 0.61 |
| FSSIVSGTLAI | inactive |
| FSSLMLLTGEYSLSIWCKRS | 1 ± 0.8 |
| FSSLWDGLLY | 1.16 ± 0.69 |
| FSVAGSE | inactive |
| FSVRHLSVSVLRMGTHLLDA | -0.746 ± 0.61 |
| FTARTGALGEVVWSFSLGLG | 0.316 ± 0.45 |
| FTGNLSGDCIYYFLCVVLSM | 0.47 ± 0.65 |
| FTLGVFSL | 0.017 ± 0.22 |
| FTLLAFGCNSENGG | -0.462 ± 0.6 |
| FTLRSDVAQQVIDDMGAVGS | -1.11 ± 1.5 |
| FTLYYFLSC | 0.406 ± 0.56 |
| FTRKLPSFVLL | 0.392 ± 0.61 |

| Substance | amyloid nucleation score |
| --- | --- |
| FTRTLMLMIRACCWHRFQLT | 0.008 ± 0.91 |
| FTSLNVRKLRGACRTTSSHG | -0.077 ± 0.61 |
| FTVSRPIMYIVYNCLHSVCV | 4.61 ± 0.049 |
| FTWMRYQKHEGHFI | -0.447 ± 1.2 |
| FVAASNYQAIPYCYRMIYVS | -0.102 ± 0.4 |
| FVATNPVL | 0.588 ± 0.42 |
| FVCRLATNYH | inactive |
| FVECSERRGSKGSLYIDEVS | -0.629 ± 0.73 |
| FVEVMLIVNFTGLGVV | 0.576 ± 0.16 |
| FVGCRHHFGPCTNRCTK | 0.087 ± 0.9 |
| FVLRRLALQ | -0.992 ± 0.39 |
| FVPIDLGNGK | 0.564 ± 0.51 |
| FVRAIMARVGFTFV | 0.569 ± 0.47 |
| FVRVANMVAWYNASRRLR | inactive |
| FVTWH | inactive |
| FVYHWRSVKGNLVWRCGSMD | 0.95 ± 0.63 |
| FWGFVGTVMLLKCVFHGVSA | 0.628 ± 0.63 |
| FWIFRVLSINANTELSWDIV | -0.631 ± 0.32 |
| FWTRCVFLLRGNSMWESCRG | -0.385 ± 0.9 |
| FWVGP | -0.217 ± 0.51 |
| FYEIY | 0.021 ± 0.93 |
| FYFRPNDQSWYVTRLFLSPA | 0.491 ± 0.93 |
| FYHFALFGVCARVPSDLACV | inactive |
| FYIFCDDFTGCS | 1.84 ± 0.11 |
| FYISNMM | -1.35 ± 0.74 |

| Substance | amyloid nucleation score |
| --- | --- |
| FYLFVMKDASILYLVCSFSF | -0.46 ± 0.4 |
| FYLHNICVRR | -0.249 ± 0.52 |
| FYQYVKCVIVPSVDALGVFS | 0.931 ± 0.2 |
| FYRFLQPMS | -0.809 ± 0.88 |
| FYRQFHHLGEDPLH | -0.583 ± 0.53 |
| FYVGDVITHHWEAELNYSDV | -0.573 ± 1.7 |
| GACECDGYVTWCLRGIFGAK | -1.41 ± 0.94 |
| GACHLGDDYFRSSVVVTKSA | 0.232 ± 0.39 |
| GAGHGELDKWNPSDGPQLLW | -0.096 ± 0.77 |
| GAQATFEVHCLERTVWVYR | -0.691 ± 1.4 |
| GASAEEIYCQP | -0.513 ± 0.34 |
| GASRVTNYRELLMASANHDG | -0.413 ± 0.45 |
| GAVCLGQIMCSRVPRDVNVK | -0.547 ± 0.49 |
| GAVPDPKVVGMGFQMGAVNS | 0.877 ± 0.7 |
| GDCTLVMLINE | 0.011 ± 0.28 |
| GDFLIPRARDQFYRFSGFND | 0.863 ± 0.46 |
| GDFSGSDVHLSFLF | 0.541 ± 0.4 |
| GDHFPEDGYSLEIADR | -0.737 ± 1.2 |
| GDIFSVQQPSNHQLETLKYS | inactive |
| GDQSM | 0.262 ± 0.31 |
| GEDVFVRSNELRN | 0.338 ± 0.38 |
| GEIEHHLRYVQCYFRRAVRL | 0.319 ± 0.33 |
| GEIGNIPLMKRRTEWQFVVA | 0.25 ± 0.47 |
| GEKCGSVPGHQLGTDILSRA | 0.819 ± 0.67 |
| GERDACYPKSLD | -1.06 ± 2.4 |

| Substance | amyloid nucleation score |
| --- | --- |
| GESHPFNVFRYCL | 1.42 ± 0.14 |
| GFAFSNVCIVAYYRYFSSRR | 3.26 ± 0.15 |
| GFARLLLRRVHRAIISHFRF | -0.617 ± 0.45 |
| GFFDSCLEMFTLSTYFCTFY | 2.86 ± 0.096 |
| GFFLI | -0.007 ± 0.21 |
| GFFPGHHSFLEATSLVSSLF | 1.4 ± 0.63 |
| GFLDVALTLSWANHRGDSSV | 3.04 ± 0.13 |
| GFNLSRTAMMICFGYFTA | 6.61 ± 0.073 |
| GFNMLC | 0.224 ± 0.5 |
| GFRFW | 2.96 ± 0.11 |
| GFRYEPNWSLSFPGV | 0.214 ± 0.41 |
| GFSNLNSYD | -0.55 ± 0.3 |
| GFYFSYSWVRRSRNSKSMAS | 0.418 ± 1 |
| GFYIDDYES | -1.39 ± 2.7 |
| GGFAILNAREEHWGLKGSSM | -0.491 ± 0.55 |
| GGGEATLREFFKECGK | -0.603 ± 0.35 |
| GGGQAELEGR | 0.365 ± 0.45 |
| GGIRRHTHGI | -0.746 ± 1.4 |
| GGPQLKVCSFGLFWWFIEVV | inactive |
| GGRLRW | 0.452 ± 0.48 |
| GGVFMMSSDSTQIIRYVKSR | 0.752 ± 0.56 |
| GGVLLRCRTSDNTGNQRVW | inactive |
| GHLCSLSSGFN | 0.69 ± 0.24 |
| GHSLHLWVTTKS | 0.561 ± 0.66 |
| GHVRFSMHRRSDVCKQGSND | 0.91 ± 0.47 |

| Substance | amyloid nucleation score |
| --- | --- |
| GHWPQRCIMVVECYQRQAHK | 0.115 ± 0.65 |
| GHWSYYKVTSYYI | inactive |
| GIAVGS | 0.413 ± 0.49 |
| GICELQRPTYVTLVEVFMVD | -0.49 ± 0.41 |
| GICHSPGWCC | 2.69 ± 0.14 |
| GIDVCWSFFILYVWERVIRG | 0.337 ± 0.36 |
| GIENLRTDV | 1.34 ± 0.37 |
| GIGAVSAC | 0.317 ± 0.56 |
| GIHNFEGGMTLWLLLFSQRS | 0.24 ± 1.2 |
| GIIRKVLAEANLNCKVSSYR | -0.488 ± 0.61 |
| GILFALSIVRDDYFC | -0.215 ± 0.19 |
| GIPCT | 0.38 ± 0.72 |
| GIRFLWPFLIPRLHKVIARR | inactive |
| GIRVFPMCNFG | inactive |
| GISSSTLTFRTMWEDRCVEG | 0.825 ± 0.66 |
| GIVCYKCSVDFLLSWLSVVF | -0.092 ± 0.31 |
| GIVFIIQYS | inactive |
| GKCMYRVCYSEA | -0.056 ± 0.46 |
| GKEDRIG | -0.093 ± 0.81 |
| GKFRYHGRAMRHSARALIYF | 0.451 ± 0.42 |
| GKFSDSHIVA | 0.308 ± 0.46 |
| GKVIQHG | -0.579 ± 1.7 |
| GKYKTFKNNITP | -0.416 ± 1.2 |
| GLASVRILGRMQV | -0.106 ± 0.36 |
| GLDKALTFKALCDLLRNSLC | 0.598 ± 1.2 |

| Substance | amyloid nucleation score |
| --- | --- |
| GLFKICYLVT | 0.408 ± 0.34 |
| GLFMGWYDRMP | 0.265 ± 0.6 |
| GLGVIVVCPVCGSKGVCGKW | -0.914 ± 1.4 |
| GLGYPSVFSEHCVGLRDCEL | -0.189 ± 1.7 |
| GLIYTTSLMRVLNSVVGL | inactive |
| GLKRWSIGFRDGERQSCRVR | -0.523 ± 0.35 |
| GLLSK | -0.062 ± 0.56 |
| GLNLNRFWRLGATFILYLQT | 1.19 ± 0.54 |
| GLRLNITNSRGRPRETWRGR | 2.33 ± 0.24 |
| GLRVPPHDVLMSIARLDVSK | inactive |
| GLSQWGTVRCHTAASIYLAT | 0.316 ± 0.58 |
| GLTCMHPWWLSHAEKRLVEL | 1.05 ± 0.49 |
| GLYFGLQLTGVS | 0.04 ± 0.35 |
| GMAWSRSLRVGHSGIMGRAV | 0.189 ± 0.22 |
| GMFYVLVGENCCFYALVWTL | -0.223 ± 0.23 |
| GMHLVKQVQGYRVRAEYSLF | 0.98 ± 0.92 |
| GMMHFGCGFSFWWNNFRQWW | 2.49 ± 0.19 |
| GMSALYSGDVL | -0.118 ± 0.57 |
| GMSIE | -0.314 ± 0.8 |
| GMTLMVAEFGLIRLVNTLAI | 0.785 ± 0.49 |
| GMVFF | 0.643 ± 0.58 |
| GMWSTNANTPILVILRGVVM | 0.71 ± 1.1 |
| GNALRMVWERTQGTLPEYRR | 0.219 ± 0.59 |
| GNFMVW | -0.403 ± 0.58 |
| GNMSCPFVQRREVLLC | -0.383 ± 1.4 |
